Measured values as given in paper PMC11417369, “DNA sequence and chromatin differentiate sequence-specific transcription factor binding in the human malaria parasite Plasmodium falciparum”.

Legend:
[1] = molecular target: T1, AP2-LT D1 (Plasmodium falciparum, UniProt Q8IAM1 2520-2577); experiment: gcPBM; about 25 ug protein; PBS, 1% milk, 0.2 mg/ml BSA, salmon testes DNA, 0.03% Triton X-100; settings: tags: N-terminal GST (pGEX-4T-1), kept; label: surface-attached array probe
T1 sequence: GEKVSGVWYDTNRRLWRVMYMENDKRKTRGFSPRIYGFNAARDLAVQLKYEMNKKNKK

[2] = molecular target: T2, AP2-G D1 (Plasmodium falciparum, UniProt Q8I5I9 2123-2245); experiment: as above; settings: tags: N-terminal GST (pGEX-4T-1), kept; label: surface-attached array probe
T2 sequence: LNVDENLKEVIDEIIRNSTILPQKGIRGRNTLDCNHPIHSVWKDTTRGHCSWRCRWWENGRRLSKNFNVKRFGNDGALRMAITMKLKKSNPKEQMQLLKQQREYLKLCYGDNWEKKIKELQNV

Binder | binding signal [1] | binding signal [2]
CACACA_site6426 (dsDNA) DNA 1: GGCATACACGAACACACACACACACGCACATATATA DNA 2: TATATATGTGCGTGTGTGTGTGTGTTCGTGTATGCC | 10.7 ln median PBM intensity, better of two orientations | –
CACACA_site4493 (dsDNA) DNA 1: GGCATACACGGACACACACACACACCGACATATATA DNA 2: TATATATGTCGGTGTGTGTGTGTGTCCGTGTATGCC | 10.6 ln median PBM intensity, better of two orientations | –
XGTACX_negctrl_site317 (dsDNA) DNA 1: TTATATTCTTTTCTCTTTCTACTTTTTTTTTTTTTT DNA 2: AAAAAAAAAAAAAAGTAGAAAGAGAAAAGAATATAA | – | 9.85 ln median PBM intensity, better of two orientations
CACACA_site5247 (dsDNA) DNA 1: AGGATATGCGGACACACACACATATATATATATATA DNA 2: TATATATATATATATGTGTGTGTGTCCGCATATCCT | 10.7 ln median PBM intensity, better of two orientations | –
CACACA_site8067 (dsDNA) DNA 1: AACAAATACAGACACACACACACACTAATAAAAAAA DNA 2: TTTTTTTATTAGTGTGTGTGTGTGTCTGTATTTGTT | 10.8 ln median PBM intensity, better of two orientations | –
XGTACX_negctrl_site385 (dsDNA) DNA 1: TACTTCTCATTTGTTGTTGTATTTTAGGCATACCCT DNA 2: AGGGTATGCCTAAAATACAACAACAAATGAGAAGTA | – | 9.85 ln median PBM intensity, better of two orientations
XGTACX_negctrl_site451 (dsDNA) DNA 1: AACAAATAAAAAAAAATAAAAATAAAAATAAAAAAA DNA 2: TTTTTTTATTTTTATTTTTATTTTTTTTTATTTGTT | – | 9.85 ln median PBM intensity, better of two orientations
XGTACX_negctrl_site343 (dsDNA) DNA 1: AATAAATAAAAAAAAAAAAAAAAAAAAAAAAAAAAA DNA 2: TTTTTTTTTTTTTTTTTTTTTTTTTTTTTATTTATT | – | 9.85 ln median PBM intensity, better of two orientations
XGTACX_negctrl_site394 (dsDNA) DNA 1: AGGTGAAAAATATATAATAATGTAACAAAAAAAAAT DNA 2: ATTTTTTTTTGTTACATTATTATATATTTTTCACCT | – | 9.88 ln median PBM intensity, better of two orientations
CACACA_site8012 (dsDNA) DNA 1: ACATCAAGCAGACACACACACACACCCACCCACCCA DNA 2: TGGGTGGGTGGGTGTGTGTGTGTGTCTGCTTGATGT | 10.8 ln median PBM intensity, better of two orientations | –
CACACA_site5884 (dsDNA) DNA 1: AATACATACGGACACACACACACATATATATATATA DNA 2: TATATATATATATGTGTGTGTGTGTCCGTATGTATT | 10.7 ln median PBM intensity, better of two orientations | –
CACACA_site906 (dsDNA) DNA 1: AAAGGATACAGACACACACACACATATATATATATA DNA 2: TATATATATATATGTGTGTGTGTGTCTGTATCCTTT | 10.7 ln median PBM intensity, better of two orientations | –
CACACA_site5272 (dsDNA) DNA 1: TATACAGATGGACACACACACATATATATATATATA DNA 2: TATATATATATATATGTGTGTGTGTCCATCTGTATA | 10.7 ln median PBM intensity, better of two orientations | –
CACACA_site3589 (dsDNA) DNA 1: AATAAAAAGAAACACACACACACACCCATATATATA DNA 2: TATATATATGGGTGTGTGTGTGTGTTTCTTTTTATT | 10.7 ln median PBM intensity, better of two orientations | –
CACACA_site2202 (dsDNA) DNA 1: CGCACCCACAGACACACACACACATATATATATATA DNA 2: TATATATATATATGTGTGTGTGTGTCTGTGGGTGCG | 10.8 ln median PBM intensity, better of two orientations | –
CACACA_site8001 (dsDNA) DNA 1: TGGGAGCACAGACACACACACACACCGATATATATA DNA 2: TATATATATCGGTGTGTGTGTGTGTCTGTGCTCCCA | 10.6 ln median PBM intensity, better of two orientations | –
XGTACX_negctrl_site369 (dsDNA) DNA 1: TTTTTTTTTAATAAAATTATAATAAATATGAAATTA DNA 2: TAATTTCATATTTATTATAATTTTATTAAAAAAAAA | – | 9.84 ln median PBM intensity, better of two orientations
XGTACX_negctrl_site191 (dsDNA) DNA 1: TTTTTAAAAAATAAGAAAAAATAAATATATTACAAA DNA 2: TTTGTAATATATTTATTTTTTCTTATTTTTTAAAAA | – | 9.86 ln median PBM intensity, better of two orientations
XGTACX_negctrl_site291 (dsDNA) DNA 1: TTTTTTATATTTAAACTTCACATGGTTTTCATTTAT DNA 2: ATAAATGAAAACCATGTGAAGTTTAAATATAAAAAA | – | 9.85 ln median PBM intensity, better of two orientations
XGTACX_negctrl_site541 (dsDNA) DNA 1: TTGTCAAAAATTACACACATAAATGAATAAATAAAT DNA 2: ATTTATTTATTCATTTATGTGTGTAATTTTTGACAA | – | 9.88 ln median PBM intensity, better of two orientations
XGTACX_negctrl_site59 (dsDNA) DNA 1: AATATTACGTGTTTGGTATTTTTCGATGTTGGCAGG DNA 2: CCTGCCAACATCGAAAAATACCAAACACGTAATATT | – | 9.87 ln median PBM intensity, better of two orientations

Binder | binding signal [1] | binding signal [2]
CACACA_site6446 (dsDNA) DNA 1: TACACGCATAGACACACACACACACGCATATAAATA DNA 2: TATTTATATGCGTGTGTGTGTGTGTCTATGCGTGTA | 10.7 ln median PBM intensity, better of two orientations | –
XGTACX_negctrl_site521 (dsDNA) DNA 1: ATGTTATAAATCTTAATATATATATGCAAAAGAGAA DNA 2: TTCTCTTTTGCATATATATATTAAGATTTATAACAT | – | 9.88 ln median PBM intensity, better of two orientations
CACACA_site5248 (dsDNA) DNA 1: CACAGACACGGACACACACACATATATATATATATA DNA 2: TATATATATATATATGTGTGTGTGTCCGTGTCTGTG | 10.9 ln median PBM intensity, better of two orientations | –
CACACA_site5249 (dsDNA) DNA 1: CGCACAGACGGACACACACACACATATATATATATA DNA 2: TATATATATATATGTGTGTGTGTGTCCGTCTGTGCG | 10.7 ln median PBM intensity, better of two orientations | –
CACACA_site4352 (dsDNA) DNA 1: CCCACAGACGGACACACACACACATATATATATATA DNA 2: TATATATATATATGTGTGTGTGTGTCCGTCTGTGGG | 10.6 ln median PBM intensity, better of two orientations | –
CACACA_site4488 (dsDNA) DNA 1: TACAAATATGGACACACACACATATATATATATATA DNA 2: TATATATATATATATGTGTGTGTGTCCATATTTGTA | 10.7 ln median PBM intensity, better of two orientations | –
CACACA_site5894 (dsDNA) DNA 1: AAAAGGAACGGACACACACACATATATATATATATA DNA 2: TATATATATATATATGTGTGTGTGTCCGTTCCTTTT | 10.7 ln median PBM intensity, better of two orientations | –
CACACA_site3394 (dsDNA) DNA 1: AACAGACAGAAACACACACACATATATATATATATA DNA 2: TATATATATATATATGTGTGTGTGTTTCTGTCTGTT | 10.7 ln median PBM intensity, better of two orientations | –
CACACA_site5883 (dsDNA) DNA 1: TACATACACGGACACACACACATATATATATATATA DNA 2: TATATATATATATATGTGTGTGTGTCCGTGTATGTA | 10.8 ln median PBM intensity, better of two orientations | –
CACACA_site2919 (dsDNA) DNA 1: TACATACAGAAACACACACACACATATATATATATA DNA 2: TATATATATATATGTGTGTGTGTGTTTCTGTATGTA | 10.8 ln median PBM intensity, better of two orientations | –
CACACA_site3654 (dsDNA) DNA 1: AAAAAACAAAAACACACACACACATATATATATATA DNA 2: TATATATATATATGTGTGTGTGTGTTTTTGTTTTTT | 10.7 ln median PBM intensity, better of two orientations | –
XGTACX_negctrl_site493 (dsDNA) DNA 1: CATATATAAATATAAATATATATATATATATATATG DNA 2: CATATATATATATATATATATTTATATTTATATATG | – | 9.85 ln median PBM intensity, better of two orientations
CACACA_site3541 (dsDNA) DNA 1: GGAATAACCAGACACACACACACATATATATATATA DNA 2: TATATATATATATGTGTGTGTGTGTCTGGTTATTCC | 10.7 ln median PBM intensity, better of two orientations | –
XGTACX_negctrl_site580 (dsDNA) DNA 1: ATACAAATTAAGCCTCAAGTTCTTTTTTTTAACATA DNA 2: TATGTTAAAAAAAAGAACTTGAGGCTTAATTTGTAT | – | 9.88 ln median PBM intensity, better of two orientations
XGTACX_negctrl_site591 (dsDNA) DNA 1: TTTTTATATAACCTTCTTAATTCTTTTTTTTTTTTT DNA 2: AAAAAAAAAAAAAGAATTAAGAAGGTTATATAAAAA | – | 9.85 ln median PBM intensity, better of two orientations
XGTACX_negctrl_site604 (dsDNA) DNA 1: ATAAATCGATAAAATATATGCTACATGAATAAATAA DNA 2: TTATTTATTCATGTAGCATATATTTTATCGATTTAT | – | 9.88 ln median PBM intensity, better of two orientations
XGTACX_negctrl_site35 (dsDNA) DNA 1: TTTTGACTAATATAATATGTTAAGAATTAATAAATA DNA 2: TATTTATTAATTCTTAACATATTATATTAGTCAAAA | – | 9.84 ln median PBM intensity, better of two orientations
CACACA_site5252 (dsDNA) DNA 1: AACACGCGCGGACACACACACACACCCACATATATA DNA 2: TATATATGTGGGTGTGTGTGTGTGTCCGCGCGTGTT | 10.7 ln median PBM intensity, better of two orientations | –
CACACA_site4355 (dsDNA) DNA 1: CACAGACACGGACACACACACACACCCACATATATA DNA 2: TATATATGTGGGTGTGTGTGTGTGTCCGTGTCTGTG | 10.7 ln median PBM intensity, better of two orientations | –
CACACA_site7645 (dsDNA) DNA 1: AAAAAAAATACATACACACACACACGCACATATATA DNA 2: TATATATGTGCGTGTGTGTGTGTATGTATTTTTTTT | 10.7 ln median PBM intensity, better of two orientations | –
CACACA_site8840 (dsDNA) DNA 1: ATAAATAAAGGACACACACACACACTAATAAAAAAA DNA 2: TTTTTTTATTAGTGTGTGTGTGTGTCCTTTATTTAT | 10.7 ln median PBM intensity, better of two orientations | –
